# Reference: patent US20190233808
# Target: FITC-labeled bovine type-1 collagen (Chondrex, Cat# 4001) (UniProt P02453)
# Sequence (P02453 162-1217, chain 1 of 2): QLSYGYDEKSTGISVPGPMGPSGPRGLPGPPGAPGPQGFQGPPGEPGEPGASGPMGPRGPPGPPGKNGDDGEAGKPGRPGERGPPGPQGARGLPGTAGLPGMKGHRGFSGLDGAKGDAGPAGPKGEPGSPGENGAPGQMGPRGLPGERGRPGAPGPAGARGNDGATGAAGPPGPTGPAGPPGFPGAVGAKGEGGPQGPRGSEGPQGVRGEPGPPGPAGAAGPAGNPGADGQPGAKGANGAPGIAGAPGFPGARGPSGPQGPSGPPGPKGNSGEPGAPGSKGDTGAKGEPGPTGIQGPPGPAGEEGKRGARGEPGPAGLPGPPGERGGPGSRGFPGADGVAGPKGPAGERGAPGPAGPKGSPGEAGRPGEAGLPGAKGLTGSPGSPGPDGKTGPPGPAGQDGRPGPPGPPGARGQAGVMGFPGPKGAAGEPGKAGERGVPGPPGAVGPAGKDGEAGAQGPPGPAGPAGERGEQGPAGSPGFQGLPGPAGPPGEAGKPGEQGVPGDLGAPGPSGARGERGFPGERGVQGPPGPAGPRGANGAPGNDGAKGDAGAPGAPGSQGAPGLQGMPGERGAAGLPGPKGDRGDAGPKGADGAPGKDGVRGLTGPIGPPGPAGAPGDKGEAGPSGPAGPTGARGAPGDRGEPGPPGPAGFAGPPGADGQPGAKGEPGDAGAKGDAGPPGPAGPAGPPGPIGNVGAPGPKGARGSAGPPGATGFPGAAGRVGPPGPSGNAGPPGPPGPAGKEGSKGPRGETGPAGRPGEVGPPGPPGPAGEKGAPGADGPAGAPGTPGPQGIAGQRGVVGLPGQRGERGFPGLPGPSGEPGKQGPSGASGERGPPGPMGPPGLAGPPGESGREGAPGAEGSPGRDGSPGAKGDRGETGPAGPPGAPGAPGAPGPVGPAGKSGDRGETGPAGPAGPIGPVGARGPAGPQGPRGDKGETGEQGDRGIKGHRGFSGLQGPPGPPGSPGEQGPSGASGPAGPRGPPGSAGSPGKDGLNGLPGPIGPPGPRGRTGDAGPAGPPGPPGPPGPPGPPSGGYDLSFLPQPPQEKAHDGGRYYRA
# Sequence (P02453 other isoform, or with tags, fused parts or gaps, chain 2 of 2): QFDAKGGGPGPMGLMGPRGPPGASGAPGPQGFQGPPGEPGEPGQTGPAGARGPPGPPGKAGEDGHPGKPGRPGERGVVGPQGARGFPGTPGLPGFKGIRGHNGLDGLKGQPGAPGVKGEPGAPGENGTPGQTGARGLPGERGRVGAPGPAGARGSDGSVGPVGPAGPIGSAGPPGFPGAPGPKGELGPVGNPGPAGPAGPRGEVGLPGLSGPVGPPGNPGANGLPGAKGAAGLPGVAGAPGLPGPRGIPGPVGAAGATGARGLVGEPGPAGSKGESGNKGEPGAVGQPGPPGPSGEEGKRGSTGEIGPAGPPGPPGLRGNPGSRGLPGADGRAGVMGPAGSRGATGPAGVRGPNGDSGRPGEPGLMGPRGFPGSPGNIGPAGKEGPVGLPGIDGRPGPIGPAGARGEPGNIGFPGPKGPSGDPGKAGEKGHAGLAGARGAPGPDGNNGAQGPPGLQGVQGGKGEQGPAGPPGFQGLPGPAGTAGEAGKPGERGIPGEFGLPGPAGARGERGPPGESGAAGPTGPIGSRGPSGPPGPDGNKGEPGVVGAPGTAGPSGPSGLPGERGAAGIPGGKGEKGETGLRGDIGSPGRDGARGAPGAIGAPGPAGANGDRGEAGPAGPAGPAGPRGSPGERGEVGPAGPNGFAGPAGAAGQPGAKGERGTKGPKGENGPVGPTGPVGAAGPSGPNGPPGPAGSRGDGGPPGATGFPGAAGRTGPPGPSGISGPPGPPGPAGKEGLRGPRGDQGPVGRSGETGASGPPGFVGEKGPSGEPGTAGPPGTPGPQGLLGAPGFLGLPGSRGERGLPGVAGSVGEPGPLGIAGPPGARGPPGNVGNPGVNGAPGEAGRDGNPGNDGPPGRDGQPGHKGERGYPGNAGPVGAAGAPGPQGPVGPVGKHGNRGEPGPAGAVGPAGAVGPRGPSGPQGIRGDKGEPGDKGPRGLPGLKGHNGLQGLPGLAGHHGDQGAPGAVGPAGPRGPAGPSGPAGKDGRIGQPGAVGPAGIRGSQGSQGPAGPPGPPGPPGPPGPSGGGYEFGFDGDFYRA
substance,measurement,value
trypsin (TPCK-treated),collagen degradation on SDS PAGE,did not show degradation of type-1 collagen
